Measured values: the DeepSol protein solubility set

experiment: soluble on expression in E. coli; label from the status in PepcDB or PDB records

Soluble on expression in E. coli, not soluble:
MGSDKIHHHHHHMDDEIKKAITNYDDRPAMTKSTQKVFKNQQEMRTVLRDEVEVWQLIHQTDKQAEANIKPKLPPLAGARIMFRHFDFCLFSHDESERMAAYLPNDGIYTQNYRYLKRLIALMYPSYNLRQALDVIYHLEMMAPVRALTIDRYLVPVNNGIWNLHQHQLIPFSPKYVFTTKIATNYRDNATTPNIKGWTIDNWFDELACGDDEIVELLWEVINDCLNGNYTRKKAIFLFSELGNSGKGTFQELITNLVGMDNVGTLKVNEFDVRFRLAGLVGKTVCIGDDIAPDIYIKDSSNFNSVVTGDLVNIEFKGQDGYTSALRCTIVQSCNGLPNFHNKGGTMRRLVIVPFNNHFQGKGDNWSIRNDYITRKDVLEYVLYKALQLDFDKFSVPEVSKKALADFELDNNPLIGFKVSFFDKLKVDKVPTYYLYEYYKKYCSINGLKALGQSKFIRRFMTCVPLYEKKQAKLSATDINTLDVFKQQDEIIAWPREPLAGKKYNCIVQSTL
MGSDKIHHHHHHMDEIELRHILHMNPELSFKEYRTKETLRKAVIEIGYEKIIEVAGTGLVIEKKETEDPYVVLRADMDALPIKEETGWEFASRNEYMHACGHDFHMSALYGAMKRLRNVKKNFLFVFQPAEETGGGAKEVVDFLKDKYEIKAAVGFHVTDEYDAGTVASRPGVLFASATEFDVYFKGVPAHVAFAEKGKDALKAAVSFLGWLYNKKWNALVGVGKISGGRARNIVPDEIKLEGTIRSEALRITEEVISNMVKQLGELKEEMGVDFAVERGSVYPEVKVDQNLFETLRETCQRLGFSFVECDMKWTGEDFGYFSQVFPSLLFWFGVGEGERFGLHHPRFLPNDRYIPMAADLLAELAMVI
MGSDKIHHHHHHMDKAGKETPFWVQKTLAQLNAHEWEALCDRCGLCCLVKAEDEEAGDIYLTSLICPFFDLKTKVCSCYSQRKQQNPDCSTLTPMTVQTYDWLPDHCAYRLVAAGKPLPTWHPLISGRHDTVVNVMNYFKGVKIRHLQPHSDLEDYLILDPPEG
MGSDKIHHHHHHMDKATTPPEFERRRARAAQYLRMSTERQIYSIDNQRDAIRNYAEVMGYDIVATYEDPGRSGLSILGRPGLKRLIEDIESRRADFETVVVYDVSRWGRFQNTDESASYEYRCQRAGVRIEFCAELFVNDGSIGSDVLKAIKRSMAAEYSRMLSNRVFAGQSRIVKLGFSGGGPAGYGLRRLLVDGSGNPKAILHRDQRKGLASDRVVLVPGPENEVSTVRWIFNQFVKKGKTAVEIASALNARGLVTEFGRPWTGACVGTILASEKYVGNIVWNRISHRLLQNRLRNPPSAFVRADNVIEPLVTRALFDRAQAIRRARTYLRPDEELLADLTKLLKERGRLSSPIIDAAPGCHSASIYAHRFGSMNAAYQLIGYDGSANYRKLDIRRRLIQIRQQTIENLMSDIEGVGGSALYDPQTKIMRVNDEFSVAIWTAQYRMNVTGFPRWPFWKRGLIGPEVTILIRMESDNQTVRDFLIAPAHEAQSALHMLKADNGVRLDAFLFASLDPVVEMARREPMPANI
MGSDKIHHHHHHMDMTTYPIYLVGGSKGGVGKSFVALALADYLLRQNIRAALVETDTSNPDVMKAVQDEMRCIAYNLDDADGWIGLVNFCDEQRDAAIVVNTAARSQTGVEQFGATLAGALGELQRRLVVLWVINRQRDSLELLHAFSKTFPDAVTNVVRNGYFGPAEKFTLYQGSQLRRSIEARGHSLDFPDLADRVADELRSQRMSIRKAAETMHIGERVELMRWRSLCDAMFARVTVDG
MGSDKIHHHHHHMDNYLAEQILKNLPFTPTQSQDSAIRSLAKYLFDREPYSVFLLRGYAGTGKTQLIASVVQTILEQGADCELLAPTGRAAKVLTTYTRHQAYTIHRQIYQATAAGIEEGGAYRIRRSSGRSTVFIVDESSMIGNESVEPTPFGSGSLLNDLLAYVNETDGCRLILAGDMAQLPPVGSVVSPALDAGVMETSYGLRIHECTLTEVVRQQKESAILSLATSLRRLLSNGISEKIKLNIRDSGDVSAISGTELIEALDASFRTVGMDETIIVSYSNKRALAYNLGIRSQVLYYEEELIRGDRLVVTRNNYRYCDRRDKTDFVANGEIVEILRLGKRYELYGFRFADATISLVEQGREIEARLLLDGLTAETAGLTHAQRQKLYDAVAEDYNSMASIPARRKAIKEDAFFSALEVKYAYAITCHKAQGGQWKHVYVDMGMLSYLPHDEQLCRWLYTAVTRASERLFLVNTPKDMLP
MGSDKIHHHHHHMDRKLLRLYQPLNAYSYNSDSLFLYDFSRPFIKNSGAILDIGSGCGILGLLCARDNPLAIVHLVEKDNKMAFCSQKNALKFPNAQVFEGDFLDFNPPILYDIIVCNPPFYALGSIKSKIKGHARHQSELDFASLVAKVKKCLKPKGYFIFCYEALSLCLVIEGLKSVKLTLETLRFVQSFKDKNAHLMLGAARNNSKSALKVLPPLITHHSKNQSDNTKEVLSIYQTCNTYSIKALLN
MGSDKIHHHHHHMDTKFSCVGCGGCCTDHHVPLTLLEARQWAADGGNVIVLTEAFLSNGYGVAQNQLTHATRRSTEVNSGSTTAFVAITFAAYNVGRCRNLDEENLCRIYERRPLVCRIYPMEINPHIPLRPETKGCPPESWEQGPDLIVGDTLVDTQLMSLIEQSRQADRDEIAAKQLICQQLGIRTTALKGNGFVAYLPDMNAFAAAIENVANLAGAAPENSDWEFHVAGQHVVDTLQQEGADVTDREPVSYLFIPLQAA
MGSDKIHHHHHHMDTQRGSLRGKAHKARLKMTPNGRRQLLLERGAAFSKNRTPGLKHVDRHTIVDSDGLSIHTYMVGHAENATATVVFIHGFTLAAEVYYMQVDYLQTFYPNIKSVLIDARGHGATGQIRPELCTIEGTANDVLAAIHEHAPTGPLILVGHSLGGLTALNLVKRADHSLRKRIVGMVLVATSIESLSTQGLPQVLASPLADNIKNAVEAAPNDAQKFRQYATTFLAPTLATAVFQRDTNDEVIDFHAAMIHETPLDTFVGFFDDLQEHDELDAAPALEGLKGYVLAGELDDVTPISQADRICEVWPGARLQIAEGAGHMLPLEAPGILNNAIGNILDGLG
MGSDKIHHHHHHMDYDYIIVGAGAAGLSLAYHLGQSALADQTILIIDPNHTRQNDRTWCFWEVGDGPFEAVVSRRWEHLWLYDKHWSARMAIAPYRYKLIQGIDFYQFVDHWLAQRPNITRLQGSVDRLVELPEGVAAVVGGRQYTARYAFNSVYRPVPTPPGYHTWLQHFKGWVIKTPQPVFDAEAATFMDFRIPQAGDVRFGYVLPFDTCTALVEYTIFSPQLVSQTEYEIGLQRYIAEQLGIDRYEITHVEYGVIPMSDVPLPLRPSPHVLNIGTAGGMSKPSTGYTFQRIQRQTRQIVASLTKEGHPFYRQPLFNRHALMDSILLNVLDAGRTPGHRFFANLFRHNPIQRVLRFLDEETTIAEDIALMSTVEMMPFAIAALAVFWGRMSSLGRREWEMG
MGSDKIHHHHHHMDYLDKLTHLAQVRGEINIRCEFQGEWQISHQEKDAGKGIFHLIEQGECWLTLNEKQFHLKEGDVFFLPQNQPHSMHYSANKRADIPTKKSHQGLFELHQIGRGTPDLKMFCGNFYYQQDALLTASMPEYLHINLCDTPIHPLVQLFLQEAQKNDAGTKSVVDALSNVLLIYILRHAIQQNLIEQGILFALQDKRLNTALIAILQQPQNDWHIEQLAELATMSRANFIRIFQQHIGMSPGRFLTKVRLQSAAFLLKQSQQSVLAIALEVGYQSEAHFCKVFKNYYQLSPSQYRKSVSL
MGSDKIHHHHHHMECHIDLHNTVIQRRVPRDGRAAKHIGIAVFNGFSLLDTVSIVEAFETANRFAEASRHDAPRYVVRLLSSAGGRIASSSSVFVWTDSVEARGHAHDFHALFIAGGTGVHDAARDGRLLAWLRRTHLRSENVLSIAEGQFLLEAAGFASSAGIGSARGLVPRHYFRRETDPATQREVSSPLESALNLIEADLGTEITCKAAASLAPRASTQFTSVLNRNASGSVSDKIRASAQWLEANGHQPISIDRAAGIAAMSERNFLRRFKAEIGVTPSGYLLYVRLDMSCRLLVETALPVDKIARRCGFGDGGQLARLFRKHMGTTPSEYRNSHRQPHDR
MGSDKIHHHHHHMEEIVLFHTNDLHSHFENWPKIRRLVKAKRSLYQKEGKTVVTIDLGDFSDRCHPLTEATDGRANVAIMNTLAYDLVTIGNNEGIGNSKKQLEHLYDQATFEVVLANLEEPKTQTLPDFCQAYKIMTTKEGTKLGFIGLTAPFPLTYNPNGWTIKQVEAVLPQLITEVAPQCDVLILLSHLGIDTDFMIAANYPEIQVILGSHTHHLFKDGEKINHVQLAAAGKYGQYIGEVHLFVDADTKQVTSYAKTIETASLEEQATDAKEIAGYLTEGHRLLQAQQIAQIPETLSTDLRQPHAFITVALKALKEAGQTEAAVLNNGLFLADLPEGIINADQLHEALPHPMHLIKVTLKGSDMSRLIREMEKSRQFLRKFPIRGMGFRGKIFGELCYDGIRFEPNSQTVFWQGKPIQPEQKYTLTTVDHFQFVPFFPTIELVGEVEFLFPDVLRTVVANYLHAHYPIK
MGSDKIHHHHHHMEESKELFKDIEKHLLNDVRPSEYLNEQLNKGNLNKYPFTMLSDLVHTEQNKEHHPEGNVWNHTLLVVDKAAENREKSSDKRAFMWGSLLHDIGKAKTTKVRKGKITSYNHDKVGETMSREFLQCFSEDEDFIYKVIKLVRWHMQTLFVVKNMSFADSKNMLKETSLDEIALLSLCDRLGRQPMSNGKIQEEKENVRTFVRKVKELNKV
MGSDKIHHHHHHMEFNDQRVRYFFEAARLGGVRAAADRMDIAASAVSRQIRQLEMELGATLFERHRRGFQPTEAGRLLLDYHRKQLSEQEAVLTALRELKGIHRGHVSVVTGGGVISDLIDAIHPFSQRYPQITVGIDIRGTNDIVRAVLEDRAHIGVVFYTAPNPLLRVHRSSIQPLYAVAAPDHPLARAERPIRLEELARHKLALPDVSFGVRQILRDAEKAEQCQLEPAIVTNSFRVMVEYALTGQAATVQPRFSVRRELESGQLQAIPIQQRNLQQAEVHLITHHGRRLSPAAARLLETLAASMPAFRDSAVTP
MGSDKIHHHHHHMEFYERAKKYEYKFTDTEDMIIEYMRKNKEEIVKLSIQSLADKFFTVPNTIVRLCKKMEYDGFSQLKNNLKEELKNENKEPKNGFESDIKKTLELIDYEKINKVADIIQKSRSIIVYGIGQNIPLCEILVKEIRGGHDNITYYSQRHEVLHDIGKLGEQDMFFALSLSGETKEVIEAAKTAVNKGCKVVALTHICENQLQQIADISLYCYSTIKQVNGYNISDKVPIMMIMRAIIEQYWLR
MGSDKIHHHHHHMEGEYRALNDISLESNVLFFGKESCLPNYFYPGNNVRKNYVIHYILKGKGTFSSANHPSIELKAGDIFILPKGIPCFYKADGKEPWTYLWIGFSGLKIKNILSRSLLLSQRYLHQVQNSHFTDSLLKLFDALHNPDTSTNNDLLIESLIYQTFYYLNSEYPAQNKTNIKSSIRLKTATKYLYDNFTDNNCSIYLLCNKLGVSRSYLYNIFKEGMNLSPQQFLIKLRMEEAKNKLKNSQNSIQEISTSVGYTDTFTFSKAFKKYSGFSPKNYRQIKSSEN
MGSDKIHHHHHHMEIGQRFLVQLEETGQYFVNYQDGILIELAFDATVGKQSPAFSDLEHTAAYLEEHLRSHQTQALLLASKIHAYDASPVERITQMISIHSFFSTHRLVHPLNAYSTALLISRLEATDPQLQRTVELYRLAKKSHRFIVSPLLVSFLFLNALRRGEIATIHARIEATYDILKKRFGRSQQTYVTALLLALLPEDDQATYIAQVVQSRNLYRKHGIPLSFHGLLALLGDPRMHQTALEGLADQFRNTPHFKYRKDLVFLTAVRLYLADHPTLHQLFAPFSPSTLDDTSNLLPVYLFPVDLTDTSHATDGGMTDGGFDGGDGGGGGGD
